Assay results: the DeepSol protein solubility set

assay: soluble on expression in E. coli; label from the status in PepcDB or PDB records

| Sequence | soluble on expression in E. coli |
| --- | --- |
| MGSDKIHHHHHHMDAIARELRTSRSTVSRLLSAARETGLVQIQIRNPLDTGPELENMIRTQYRVDVHVVPVLDTLNEAETLDRVAMQAARTIGPLVDSNAIIGVAWGSTLSAVSRHLTRKITHDSVIVQLNGAGNMQTTGITYASDIMRRFGSAYGARVEQFPVPAFFDHAATKTAMWNERSVQRILELQSRMSIAIFGVGSVDADYPSHVYAGGYLDEDDLNILANSDVVGDVATVFFRGDGSSDGITLNERSTGPALAQLRQVRRRICVVSGASKINGLRGALAAGLATDLILDEATARRLVSFDGLS | not soluble |
| MTQLATICYIDNGDSLLLLHRNKKENDVHKGKWISVGGKLEAGETPDECARREILEETHLTVTEMAFKGIITFPEFTPGHDWYTYVFKVTGFEGDLISDEESREGTLEWVPYDQVLEKPTWEGDYDIFKWILEDRSFFSAKFTYDQNNQLMDKSVTFY | not soluble |
| MSLVKKGAALLMVATMALSSAACSNSKTEGKPEVQAKVAPVEKNGDKTVIRFWHAMGGKTQGVLDGLVADYNKSQNKYEIKAEFQGTYEESLTKFRTMSATKEAPALVQSSEITTKYMIDSKKITPIDSWIKKDKYDTSKLEKAITNYYSVDGKMYSMPFNSSTPVLIYNKDAFAKAGLDPEKAPKTYAELQEAAKKLTIKEGGNVKQYGFSMLNYGWFFEELLATQGALYVDNENGRKDAAKKAVFNGKEGQKVFGMLDDLNKAGALGKYGASWDDIRAAFQSGQVAMYLDSSAGVRDLIDASKFNVGVSYIPYPEDSKQNGVVIGGASLWMTNMVSEETQQGAWDFMKYLTKPDVQAKWHTATGYFSINPDAYNEPLVKEQYEKYPQLKVTVDQLQATKQSPATQGALISVFPESRDAVVKALEAMYDGKNSKEALDEAAKATDRAISISARTSQK | not soluble |
| LLLYIHGFNSSPLSMKANLMREYCAQHRPDIKVIVPQLPCFPEQAAQLLLDIVEQYKDDYNIGLVGSSLGGYMSTWLNAKYGFKAVVVNPAVKPYELLVDYLGEQTNPYTRETYTLEACHIDELKALDVQSIASPHSFWLLQQTEDEVLDYRQAVDKFAKAKQTVEQGGDHSFVGFERYPAKIIEFLE | not soluble |
| MFFSALKSFLSRYITVWRNVWAVRDQLKPPKRTAEEQAFLPAHLELTDTPVSAAPKWAARFIMAFALLALLWSWFGKIDIVAAASGKTVSGGRSKTIQPLETAVVKAVHVRDGQHVKQGETLAELEAVGTDSDVVQSEQALQAAQLSKLRYEAVLAALESRTVPHIDMAQARSLGLSDADVQSAQVLAQHQYQAWAAQDAQLQSALRGHQAELQSAKAQEQKLVSVGAIEQQKTADYRRLRADNFISEHAFLEQQSKSVSNWNDLESTRGQMRQIQAAIAQAEQNRVLNTQNLKRDTLDALRQANEQIDQYRGQTDKAKQRQQLMTIQSPADGTVQELATYTVGGVVQAAQKMMVIAPDDDKMDVEVLVLNKDIGFVEQGQDAVVKIESFPYTRYGYLTGKVKSVSHDAVSHEQLGLVYTAVVSLDKHTLNIDGKAVNLTAGMNVTAEIKTGKRRVLDYLLSPLQTKLDESFRER | not soluble |
| MRKSRLSRYKQNKLIELFVAGVTARTATEPDSIVYTDCYRRYDVLDAGEFSHFRINHSTHFAERQNHINGIGNFWNRAKRHLRKFDGIPKEHFEPYLKECERRFNNSEIKVLVPFLEHHHHHH | not soluble |
| MLNVVKRDGRQVVFDSNKIFNAIKGAADEIGYDIKQSDILELTQKVIGRVEDLKIREISVEEVQNLVEEVLLENGNKEIGMAYCTYRKERTKVRE | not soluble |
| MSLSNTVHVFFGNKDSKVQVFKDKGTNQFANQVNLFMGDYLDTYFNRDKDTDLDKLKKYYGSGIDIKGQESRDIDMKLEHVSLVEIKSSVAVYDINYQIKDGDNWKSVLARINVPYKEKDGRYYVSDLPYYTDQSSYVADTVKGNSKLPTQSEVEGLSNKKLSGLKDYIVAFFKAYTSGDNSQMAPFSGAVSPLKSYEFEELDYAYFIKHKHSIIAVVQVTFKNEFGVKHQENFTLEVTESKQTSSYYVKSMKHGIDEDCRKEMKMDEGHHHHHH | soluble |
| MGSDKIHHHHHHMTATTATAPTMRGGGRNELPPHLDDNLLTPRFYTTEFDKAAKTDLDIARKDFEAMFKEMEADYNLKHFDRKASLERLSELSPEDKAIYESYLVRSVVSEFSGFLLFKEISNRFKKAGRQELGQFFTFLARDEARHAGFLGRALKAEGINVDLPNLGNKRAATFFPLSWVLYSLYLSEKIGYWRYILINRHLNDNPEKVCAPLFDFFEPWCQDENRHGDCINLMMRCWPGMTKGFRGKLLSRFFLWSVFLTHTLTVCERGDFYGLLGIDPVLFDEEVIIQTNNTSRNAFPWVYNFDDGKFLEMRVQILKAFRNWRESSGLAKPVALSKFVSLILRQFALPMQKTNAVRYG | not soluble |
| MNNSINHKFHHISRAEYQELLAVSRGDAVADYIIDNVSILDLINGGEISGPIVIKGRYIAGVGAEYTDAPALQRIDAHGATAVPGFIDAHLHIESSMMTPVTFETATLPRGLTTVICDPHEIVNVMGEAGFAWFARCAEQARQNQYLQVSSCVPALEGCDVNGASFTLEQMLAWRDHPQVTGLAEMMDYPGVISGQNALLDKLDAFRHLTLDGHCPGLGGKELNAYIAAGIENCHESYQLEEGRRKLQLGMSLMIREGSAARNLNALAPLINEFNSPQCMLCTDDRNPWEIAHEGHIDALIRRLIEQHNVPLHVAYRVASWSTARHFGLNHLGLLAPGKQADIVLLSDARKVTVQQVLVKGEPIDAQTLQAEESAKLAQSAPPYGNTIARQPVSASDFALQFTPGKRYRVIDVIHNELITHSHSSVYSENGFERNDVCFIAVLERYGQRLAPACGLLGGFGLNEGALAATVSHDSHNIVVIGRSAEEMALAVNQVIQDGGGLCVVRNGQVQSHLPLPIAGLMSTDTAQSLAEQIDALKAAARECGPLPDEPFIQMAFLSLPVIPALKLTSQGLFDGEKFAFTTLEVTE | not soluble |
| MAEEPKGVPLSELSLQQLGELQKNCEQELNFFQESFNALKGLLTRNEKSISALDDVKIATAGHTALIPLSESLYIRAELSDPSKHLVEIGTGYFVELDREKAKAIFDRKKEHITKQVETVEGILKEKRRTRAYISDAFQTKVQSQLATMNTQ | not soluble |
| MYVCKHCGSAMNKDVEIDIVGIKGNTLYVGECKWSNKKIDVRVLDRLRSKVPYLLKDLQVDNLSVVYYLFSRSGFDGLKETEEVKLVELKDLFR | not soluble |
| GSMDALNSKEQQEFQKVVEQKQMKDFMRLYSNLVERCFTDCVNDFTTSKLTNKEQTCIMKCSEKFLKHSERVGQRFQEQNAALGQGLGR | soluble |
| MNNAKTAVTSRSVISLNSPIFLRQFYFEILNRLQVSSIIPKSKSEYVDAHMIRVSIEPQPTAFAYVFEYSTISTEPDNWNFAGASSKPEATFSILDPCRDYQFRVIIVIRSSNPAAVFDIIRPRPIPVQLPPFILTQPQISIEMPRVNNFNASGDLKLYVKWSLPYGYIDGDIYSYESPALYPIQCSTPEGEIPTPRIEIVKGGGRLAVWLPPSVLEARCRMWVEVRMLPRCVRLEPFNIQKNIEIDCSKNPSLDVCSKGR | not soluble |
| STLEIAGLVRKNLVQFGVGEKNGSVRWVMNALGVKDDWLLVPSHAYKFEKDYEMMEFYFNRGGTYYSISAGNVVIQSLDVGFQDVVLMKVPTIPKFRDITQHFIKKGDVPRALNRLATLVTTVNGTPMLISEGPLKMEEKATYVHKKNDGTTVDLTVDQAWRGKGEGLPGMCGGALVSSNQSIQNAILGIHVAGGNSILVAKLVTQEMFQNIDKKIESQ | soluble |
| MSFDGFFLHHLTNELQEQIEKGRIQKVNQPFDHELVLTIRNNRRNYKLLLSAHPVFGRIQTTEANFQNPQNPNTFTMIMRKYLQGAVIETIQQIENDRILEIVVSNKNEIGDHIKATLVVEIMGKHSNIILIDKNEHKIIESIKHVGFSQNSYRTILPGSTYIAPPKTKAINPFDISDQTLFELLQTNDLSPKNLQQLLQGLGRDTALELSHCLKDNKLNDFRQFFSREYYPSLTEKSFSAVQFSSSHETFQSLGQLLDYYYQEKAEKDRIAQQASDLIHRVQSELEKNIKKLAKQQDELLATENAEEFRQKGELLTTYLSMVPNNQDVVVLDNYYTNQTIEISLDRALTPNQNAQRYFKKYQKLKEAVKHLKGIISDTENTITYLESVETSLNHASMEDINDIREELVETGFIKRRAHDKQHKRKK | not soluble |
| MSITSPVSNTWAPTVKGPHGTQSKIDTKSLSPNLSRAELRKQVRLARRSLSTEVQAEASINACERMLKKLMAMNAQHVALYLTHDGELATAPLIAALWQRGIQTYLPRLHPFNAGQLLFLHYHADSPMQPNQYGILEPKLDVRSVMPIERLDVVVTPLVAFDIKGNRMGMGGGYYDRTLANWQDNGKPLPMGYAHDCQQVPSLPCEHWDVPLPAIITPSRVWEFLEHHHHHH | soluble |
| MGGSHHHHHHGMASALETNYLKRCFGNCLAQALAEVAKVRPSDPIEYLAHWLYHYRKTAKAKEENREKKIHLQEEYDSSLKEMEMTEMLKQEEYQIQQNCEKCHKELTSETVSTKKTIFMQEDTNPLEKEALKQEFLPGTSSLIPGMPQQVPPSESAGQIDQNFKMPQEINYKEAFQHEVAHEMPPGSKSPF | not soluble |
| MSLTANRDKFRPVYHHTPLYGWMNDANGLVYKDGEYHLYFQYNPYGSVWGNMHWGHSVSKDLVHWEHLDPAIARDTLGHIFSGSAIVDKHNSAGYGENTIVAFYTSHRNIPSGQSQVQSMAYSTDNGRTYTKYEQNPVLTPFDGLQNFRDPKVFWYEPEQKWIMIVSADKNMRFYSSANLKQWEYMSEFGEGFGPQPNQFECPDFIQLPVDGDRTRMKWVMIVNINPGFVYGGSGTMYFTGDFDGHQFVCDTKPEVVKWLDWGKDHYATVCFSNTGDRVIAVPWMSNWQYANYTPIQQFRSANALPRELSLYTGEDKQLYLSAAPVKETEHLRKDSKKLDDFTVNGEKRLETLFENNDGAFELELQLVSAGKEAGFELLNSLGEKVKIYLDASEGRVVMDRAESGIVDFGKKVKPHDLDTEESYARYKEVTVNYKNDFALGTWAPINTAKAHKIQVFVDNGSVELFVDGGRVAMTNLVFPNEPYNSLRFYSKGGEMKISNFTIYKLGLEGHHHHHH | soluble |
| MEKLAAKVLENFDFLKKLLRDRAECGESEITIYDDPVTIVVKRDRIDFFINEEYHGSVGVGFNTLSDEIREEARLWLEGLAGMKFKRYAVRR | not soluble |
| MSLALLNVDKLSVHFGDESAPFRAVDRISYSVKQGEVVGIVGESGSGKSVSSLAIMGLIDYPGRVMAEKLEFNGQDLQRISEKERRNLVGAEVAMIFQDPMTSLNPCYTVGFQIMEAIKVHQGGNKSTRRQRAIDLLNQVGIPDPASRLDVYPHQLSGGMSQRVMIAMAIACRPKLLIADEPTTALDVTIQAQIIELLLELQQKENMALVLITHDLALVAEAAHKIIVMYAGQVVETGDAHAIFHAPRHPYTQALLRALPEFAQEGHHHHHH | not soluble |
| GMSAPVTLINPFKVPADKLEAAIEYWEAHRDFMAQQPGYLSTQLHQSIDEGATYQLINVAIWQSEADFYQAAQKMRQALGHVQVEGLCGNPALYRVIRT | soluble |
| MGSDKIHHHHHHMNKYNQLGSVRYNQLGRIKYNSRGAREVKPLFNRLAQARPVILDQNRRRLAILENADNIILEQEINGIDQVTFTLPWKDEKRKYLVNENLVQLVNSIYIIRRVSVKRSGLSPAEIEVYAEALWYDLQFAEPVEHARWESATPEVIMKDILDGTGWRVGKVTITRERTLELEAGFTNRLKALYELPSLFGGELHFNTDTMTVDFTEPVGRKSGAAIAYSKNLEEVEAIYDTEELVTKLYLYGKNNMSIADANDGVPYLTDFSFTDKVRVRVTKDERFTNPYHLKERGEEALKVLARPRSSYVLRAADLSALSGMSHEEFFLGDEVLVYDKELGINVRTRIVSWKYNVIQPWNTELQLESKQPSLSDLLTGIQEGAEFLYSEDAVERDEMLNLHVFNYLMNSRGDDGFNYWTNDGWELDAENGYSGNASFRATAQPGVKKSLRQTIYPAHRDSYSLSLRVATENLRVGNGRVGVYVKFKYQDGTEEEPIWIPLSEDE | not soluble |
